Experimental data as given in patent publication US20140178854A1.

Tests used:
[1] = target: gp70 env protein of amphotropic MLV (4070A envelope), on purified viral particles (amphotropic murine leukemia virus (4070A envelope)); assay: ELISA on plate-bound MLV, dilution factor 1250, Exp122-Ana Plate 1
[2] = target: gp70 env protein of amphotropic MLV (4070A envelope), on purified viral particles (amphotropic murine leukemia virus (4070A envelope)); assay: ELISA on plate-bound MLV, dilution factor 1250, Exp073-DTV Plate 1
[3] = target: gp70 env protein of amphotropic MLV (4070A envelope), on purified viral particles (amphotropic murine leukemia virus (4070A envelope)); assay: ELISA on plate-bound MLV, dilution factor 31250, Exp125-Ana Plate 1
[4] = target: gp70 env protein of amphotropic MLV (4070A envelope), on purified viral particles (amphotropic murine leukemia virus (4070A envelope)); assay: ELISA on plate-bound MLV, dilution factor 1250, Exp125-Ana Plate 2
[5] = target: gp70 env protein of amphotropic MLV (4070A envelope), on purified viral particles (amphotropic murine leukemia virus (4070A envelope)); assay: ELISA on plate-bound MLV, dilution factor 1250, Exp074-DTV Plate 1
[6] = target: gp70 env protein of amphotropic MLV (4070A envelope), on purified viral particles (amphotropic murine leukemia virus (4070A envelope)); assay: ELISA on plate-bound MLV, dilution factor 250, Exp121-Ana Plate 2
[7] = target: gp70 env protein of amphotropic MLV (4070A envelope), on purified viral particles (amphotropic murine leukemia virus (4070A envelope)); assay: ELISA on plate-bound MLV, dilution factor 10, Exp072-DTV Plate 2
[8] = target: gp70 env protein of amphotropic MLV (4070A envelope), on purified viral particles (amphotropic murine leukemia virus (4070A envelope)); assay: ELISA on plate-bound MLV, dilution factor 31250, Exp073-DTV Plate 1
[9] = target: gp70 env protein of amphotropic MLV (4070A envelope), on purified viral particles (amphotropic murine leukemia virus (4070A envelope)); assay: ELISA on plate-bound MLV, dilution factor 50, Exp073-DTV Plate 2
[10] = target: gp70 env protein of amphotropic MLV (4070A envelope), on purified viral particles (amphotropic murine leukemia virus (4070A envelope)); assay: ELISA on plate-bound MLV, dilution factor 781250, Exp122-Ana Plate 1
[11] = target: gp70 env protein of amphotropic MLV (4070A envelope), on purified viral particles (amphotropic murine leukemia virus (4070A envelope)); assay: ELISA on plate-bound MLV, dilution factor 156250, Exp072-DTV Plate 1
[12] = target: gp70 env protein of amphotropic MLV (4070A envelope), on purified viral particles (amphotropic murine leukemia virus (4070A envelope)); assay: ELISA on plate-bound MLV, dilution factor 250, Exp073-DTV Plate 2
[13] = target: gp70 env protein of amphotropic MLV (4070A envelope), on purified viral particles (amphotropic murine leukemia virus (4070A envelope)); assay: ELISA on plate-bound MLV, dilution factor 50, inter-assay mean of six experiments
[14] = target: gp70 env protein of amphotropic MLV (4070A envelope), on purified viral particles (amphotropic murine leukemia virus (4070A envelope)); assay: ELISA on plate-bound MLV, dilution factor 250, Exp072-DTV Plate 1
[15] = target: gp70 env protein of amphotropic MLV (4070A envelope), on purified viral particles (amphotropic murine leukemia virus (4070A envelope)); assay: ELISA on plate-bound MLV, dilution factor 10, Exp125-Ana Plate 1
[16] = target: gp70 env protein of amphotropic MLV (4070A envelope), on purified viral particles (amphotropic murine leukemia virus (4070A envelope)); assay: ELISA on plate-bound MLV, dilution factor 1250, inter-assay mean of six experiments
[17] = target: gp70 env protein of amphotropic MLV (4070A envelope), on purified viral particles (amphotropic murine leukemia virus (4070A envelope)); assay: ELISA on plate-bound MLV, dilution factor 10, Exp125-Ana Plate 2
[18] = target: gp70 env protein of amphotropic MLV (4070A envelope), on purified viral particles (amphotropic murine leukemia virus (4070A envelope)); assay: ELISA on plate-bound MLV, dilution factor 781250, Exp073-DTV Plate 2
[19] = target: gp70 env protein of amphotropic MLV (4070A envelope), on purified viral particles (amphotropic murine leukemia virus (4070A envelope)); assay: human anti-MLV ELISA on plate-bound MLV, anti-rat Ig HRP alone or conjugate cocktail
[20] = target: gp70 env protein of amphotropic MLV (4070A envelope), on purified viral particles (amphotropic murine leukemia virus (4070A envelope)); assay: ELISA on plate-bound MLV, dilution factor 156250, Exp122-Ana Plate 2
[21] = target: gp70 env protein of amphotropic MLV (4070A envelope), on purified viral particles (amphotropic murine leukemia virus (4070A envelope)); assay: ELISA on plate-bound MLV, dilution factor 6250, Exp125-Ana Plate 2
[22] = target: gp70 env protein of amphotropic MLV (4070A envelope), on purified viral particles (amphotropic murine leukemia virus (4070A envelope)); assay: ELISA on plate-bound MLV, dilution factor 1250, Exp121-Ana Plate 2
[23] = target: gp70 env protein of amphotropic MLV (4070A envelope), on purified viral particles (amphotropic murine leukemia virus (4070A envelope)); assay: ELISA on plate-bound MLV, dilution factor 31250, Exp074-DTV Plate 1
[24] = target: gp70 env protein of amphotropic MLV (4070A envelope), on purified viral particles (amphotropic murine leukemia virus (4070A envelope)); assay: ELISA on plate-bound MLV, dilution factor 250, Exp125-Ana Plate 2
[25] = target: gp70 env protein of amphotropic MLV (4070A envelope), on purified viral particles (amphotropic murine leukemia virus (4070A envelope)); assay: ELISA on plate-bound MLV, dilution factor 31250, Exp125-Ana Plate 2
[26] = target: gp70 env protein of amphotropic MLV (4070A envelope), on purified viral particles (amphotropic murine leukemia virus (4070A envelope)); assay: ELISA on plate-bound MLV, dilution factor 6250, Exp074-DTV Plate 2

Sequence of gp70 env protein of amphotropic MLV (4070A envelope), on purified viral particles (amphotropic murine leukemia virus (4070A envelope)) (P21995 whole entry): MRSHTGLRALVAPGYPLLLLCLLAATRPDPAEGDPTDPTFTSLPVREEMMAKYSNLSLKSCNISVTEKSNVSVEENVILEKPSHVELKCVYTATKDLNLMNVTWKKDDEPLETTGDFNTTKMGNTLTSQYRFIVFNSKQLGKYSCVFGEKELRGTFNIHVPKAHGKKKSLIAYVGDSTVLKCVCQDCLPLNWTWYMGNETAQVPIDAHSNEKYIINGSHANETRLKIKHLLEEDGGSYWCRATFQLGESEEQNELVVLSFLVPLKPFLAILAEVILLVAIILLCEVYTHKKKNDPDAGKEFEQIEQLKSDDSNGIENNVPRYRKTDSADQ

83A25 monoclonal antibody (rat IgG2a, anti-gp70)
Mean OD [1]: 1.48 OD
Mean OD [2]: 1.78 OD
Mean OD [3]: 0.235 OD
Mean OD [4]: 1.44 OD
Mean OD [5]: 1.45 OD
Mean OD [6]: 2.25 OD
Mean OD [7]: 2.04 OD
Mean OD [8]: 0.282 OD
Mean OD [9]: 2.31 OD
Mean OD [10]: 0.162 OD
Mean OD [11]: 0.116 OD
Mean OD [12]: 2.12 OD
Mean OD (inter-assay mean) [13]: 2.09 OD
Mean OD [14]: 1.7 OD
Mean OD [15]: 2.17 OD
Mean OD (inter-assay mean) [16]: 1.53 OD
Mean OD [17]: 2.27 OD
Mean OD [18]: 0.11 OD
titer (reciprocal dilution (1:x)) [19]: 312000
Mean OD [20]: 0.174 OD
Mean OD [21]: 0.635 OD
Mean OD [22]: 1.84 OD
Mean OD [23]: 0.253 OD
Mean OD [24]: 1.88 OD
Mean OD [25]: 0.239 OD
Mean OD [26]: 0.699 OD
